Measured values reported in paper PMC4377080, “Probing Bunyavirus N protein oligomerisation using mass spectrometry” (Rapid Communications in Mass Spectrometry, 2014).
Several values for one entry are separate records, joined by “and”; a condition that tells them apart may be missing. Identical values can stand only once.

Experiments:
[1] = target: the molecule itself; test: native MS; nano-ESI-MS of RNA-free N protein (10 μM monomer) incubated with synthetic 60-mer RNA
[2] = target: the molecule itself; test: native MS; nano-ESI-MS of RNA-free N protein (10 μM monomer) incubated with synthetic 24-mer RNA
[3] = target: the molecule itself; test: native MS; nano-ESI-MS of RNA-free N protein (10 μM monomer) incubated with synthetic 48-mer RNA
[4] = target: the molecule itself; test: native MS; nano-ESI-MS of RNA-free N protein (10 μM monomer) incubated with synthetic 12-mer RNA; 2:1 N/RNA molar ratio for BUNV-N
[5] = target: T1, SBV-N nucleocapsid protein (Schmallenberg virus, UniProt H2AM13 1-233); test: native nanoESI-MS, CID MS/MS; N:RNA 4:2, 5:2; 4:2 also in mixture with BUNV-N; 50 mM ammonium acetate, pH 6.8 (stated for RNA-free BUNV-N); 10 uM final N protein (monomer basis); temperature not given; conditions: protein: recombinant; tags: His6-SUMO, removed; chain copies: 4
T1 sequence: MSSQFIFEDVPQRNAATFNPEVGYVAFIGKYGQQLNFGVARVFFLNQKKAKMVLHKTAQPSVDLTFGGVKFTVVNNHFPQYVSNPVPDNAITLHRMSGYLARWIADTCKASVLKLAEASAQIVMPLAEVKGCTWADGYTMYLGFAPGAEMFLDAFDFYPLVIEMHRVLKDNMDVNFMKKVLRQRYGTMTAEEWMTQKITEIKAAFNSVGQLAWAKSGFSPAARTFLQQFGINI

[6] = target: T2, BUNV-N nucleocapsid protein (Bunyamwera virus, UniProt P16495 1-233); test: native nanoESI-MS, CID MS/MS; N:RNA 3:1, 4:2 (major), 5:2, 6:3; 4:2 also in mixture with SBV-N; 50 mM ammonium acetate, pH 6.8 (stated for RNA-free BUNV-N); 10 uM final N protein (monomer basis); temperature not given; conditions: protein: recombinant; tags: His6-SUMO, removed
[7] = target: the molecule itself; test: native MS; nano-ESI-MS of BUNV-N bound to endogenous E. coli RNA (as purified; traces also left after the RNA-removal step); ammonium acetate buffer pH 6.8
[8] = target: T2, BUNV-N nucleocapsid protein; test: native nanoESI-MS; N:RNA 6:1, low population; 50 mM ammonium acetate, pH 6.8 (stated for RNA-free BUNV-N); 10 uM final N protein (monomer basis); temperature not given; conditions: protein: recombinant; tags: His6-SUMO, removed
[9] = target: T1, SBV-N nucleocapsid protein; test: native nanoESI-MS; N:RNA 4:1 and 5:1 (equal major), 6:1, 8:1; 50 mM ammonium acetate, pH 6.8 (stated for RNA-free BUNV-N); 10 uM final N protein (monomer basis); temperature not given; conditions: protein: recombinant; tags: His6-SUMO, removed; chain copies: 4
[10] = target: T1, SBV-N nucleocapsid protein; test: native nanoESI-MS; N:RNA 4:4 (major), 8:8, 10:10, 12:12; 50 mM ammonium acetate, pH 6.8 (stated for RNA-free BUNV-N); 10 uM final N protein (monomer basis); temperature not given; conditions: protein: recombinant; tags: His6-SUMO, removed; chain copies: 4
[11] = target: T2, BUNV-N nucleocapsid protein; test: native nanoESI-MS; N:RNA 3:2, 3:3, 4:4 (3:3 and 4:4 major); mixed at 2:1; 50 mM ammonium acetate, pH 6.8 (stated for RNA-free BUNV-N); 10 uM final N protein (monomer basis); temperature not given; conditions: protein: recombinant; tags: His6-SUMO, removed
[12] = target: T1, SBV-N nucleocapsid protein; test: native nanoESI-MS; N:RNA 3:1, 4:1 (major), 4:2, 5:2; 50 mM ammonium acetate, pH 6.8 (stated for RNA-free BUNV-N); 10 uM final N protein (monomer basis); temperature not given; conditions: protein: recombinant; tags: His6-SUMO, removed; chain copies: 4
[13] = target: T2, BUNV-N nucleocapsid protein; test: native nanoESI-MS; N:RNA 5:1; 50 mM ammonium acetate, pH 6.8 (stated for RNA-free BUNV-N); 10 uM final N protein (monomer basis); temperature not given; conditions: protein: recombinant; tags: His6-SUMO, removed

B1: Schmallenberg virus nucleocapsid (N) protein (natural protein)
chain: T1 sequence
notes: Nucleocapsid (N) protein of Schmallenberg virus (SBV); measured monomer mass 26 269 Da; also called SBV-N; SBVN; source: tag removed; high salt-treated
[1]
  stoichiometry N: 6
[2]
  stoichiometry N: 5
[3]
  stoichiometry N: 3
[4]
  stoichiometry N: 4 and 8 and 10 and 12

## AGUAGUGUACUCCACACUACAAAC (ssRNA) [24-mer RNA]
[5]
  binding result: binds
[6]
  binding result: binds

B2: Bunyamwera virus nucleocapsid (N) protein (natural protein)
chain: MIELEFHDVAANTSSTFDPEVAYANFKRVHTTGLSYDHIRIFYIKGREIKTSLAKRSEWEVTLNLGGWKITVYNTNFPGNRNNPVPDDGLTLHRLSGFLARYLLEKMLKVSEPEKLIIKSKIINPLAEKNGITWNDGEEVYLSFFPGSEMFLGTFRFYPLAIGIYKVQRKEMEPKYLEKTMRQRYMGLEAATWTVSKLTEVQSALTVVSSLGWKKTNVSAAARDFLAKFGINM
notes: Nucleocapsid (N) protein of Bunyamwera virus (BUNV); As purified it carries E. coli RNA (tetramer with about 44 nt); the RNA-free form is obtained by high salt treatment; also called BUNV-N; BUNVN; source: tag removed; endogenous RNA removed with high ionic strength buffers where stated
[7]
  stoichiometry N: 4
[2]
  stoichiometry N: 5 and 6
[4]
  stoichiometry N: 3

B3: 60-mer RNA (ssRNA)
RNA: AGUAGUGUACUCCACACUACAAACUUGCUAUUGUUGAAAAUCGCUGUGCUAUUAAAUCCA
[8]
  binding result: binds
[9]
  binding result: binds

## AGUAGUGUACUC (ssRNA) [12-mer RNA]
[10]
  binding result: binds
[11]
  binding result: binds

## AGUAGUGUACUCCACACUACAAACUUGCUAUUGUUGAAAAUCGCUGUG (ssRNA) [48-mer RNA]
[12]
  binding result: binds
[13]
  binding result: binds
